Drawing on the RNAGym collection of RNA variant scans (doi:10.1093/molbev/msab373), this text covers reverse-splicing fitness for 83 variants.

Sequences and labels used below:
B1: Azoarcus group I ribozyme (parent)
chain: GUGCCUUGCGCCGGGAAACCACGCAAGGGAUGGUGUCAAAUUCGGCGAAACCUAAGCGCCCGCCCGGGCGUAUGGCAACGCCGAGCCAAGCUUCGGCGCCUGCGCCGAUGAAGGUGUAGAGACUAGACGGCACCCACCUAAGGCAAACGCUAUGGUGAAGGCAUAGUCCAGGGAGUGGCGAAAGUCACACAAACCGG

The variants in this data set derive from B1. The data set can be described thus: reverse-splicing fitness (ratio to wild type); higher = more active; in vitro selection; Mg2+ level not given. The method in brief: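 An in vitro group I ribozyme library with randomized positions was T7-transcribed and gel-purified. In triplicate, 10 pmol RNA in EPPS pH 7.5 was reacted with 50 pmoles of a 30-nt RNA substrate for 1 h at 37 °C across several added MgCl2 levels (1–48 mM), then stopped with EDTA. Products were reverse transcribed from a substrate-complementary primer, PCR-amplified and sequenced (HiSeq 4000). Fitness is a variant's read proportion after selection over that before, normalised to wild type.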
For C82A A120U A145C C150U C169U U176G, the reverse-splicing fitness amounted to 0.00212. Take C82A A120U A145C C150U C169U U176C: the reverse-splicing fitness amounted to 0.00257. Then C82A A120U A145C C150U C169U U176A, with 0.00245; and C82A A120U A145G C150G C169A, with 0.0097. Then C82A A120U A145G C150G C169G, with 0.00686; and C82A A120U A145G C150G C169U, with 0.00784; and C82A A120U A145G C150G U176A, with 0.00758. Then C82A A120U A145G C150G U176C, with 0.0117; and C82A A120U A145G C150G U176G, with 0.00433; and C82A A120U A145C C150A C169U, with 0.00225. With C82A A120U A145C C150A C169G, the reverse-splicing fitness turned out to be 0.00223. Then C82A A120U A145C C150A C169A, with 0.00256; and C82A A120U A145G C150U C169U U176G, with 0.00226. On to C82A A120U A145G C150U C169U U176C, for which the reverse-splicing fitness worked out at 0.00493. As for C82A A120U A145G C150U C169U U176A, the reverse-splicing fitness was 0.00414. Then C82A A120U A145U C150A, with 0.0126; and C82A A120U A145U C150G, with 0.0166; and C82A A120U A145G C150A C169A U176C, with 0.00397. On to C82A A120U A145G C150A C169A U176A, for which the reverse-splicing fitness is 0.0062. Then C82A A120U A145G C150A C169A U176G, with 0.00236. Then C82A A120U A145G C150G C169G U176A, with 0.00824; and C82A A120U A145G C150G C169G U176C, with 0.00694. Turning to C82A A120U A145G C150G C169G U176G, the reverse-splicing fitness amounted to 0.00415. With C82A A120U A145G C169G U176A the figure was 0.00295. Then C82A A120U A145G C169G U176C, with 0.00373; and C82A A120U A145G C169G U176G, with 0.00125; and C82A A120U, with 0.154. On to C82A A120U A145G C150U U176A, for which the reverse-splicing fitness stood at 0.0246. Then C82A A120U A145G C150U U176G, with 0.00635; and C82A A120U A145G C150U U176C, with 0.0478. With C82A A120U A145C C169U U176G the figure was 0.00109. Then C82A A120U A145C C169U U176C, with 0.00274; and C82A A120U A145C C169U U176A, with 0.00271; and C82A A120U A145G C150A C169G U176G, with 0.00227.

Consider C82A A120U A145G C150A C169G U176C, for which the reverse-splicing fitness is 0.00523. Then C82A A120U A145G C150A C169G U176A, with 0.00661. In the case of C82A A120U A145C U176C, the reverse-splicing fitness amounted to 0.0456. With C82A A120U A145C U176G the figure was 0.00979. As for C82A A120U A145C U176A, the reverse-splicing fitness turned out to be 0.0307. Then C82A A120U A145G C169A U176G, with 0.00129; and C82A A120U A145G C169A U176C, with 0.00257; and C82A A120U A145G C169A U176A, with 0.00307.

C82A A120U A145U C150A C169U U176G: the reverse-splicing fitness turned out to be 0.00196. Then C82A A120U A145U C150A C169U U176A, with 0.00228; and C82A A120U A145U C150A C169U U176C, with 0.0026. With C82A A120U A145C C150U C169A the figure was 0.00197; with C82A A120U A145C C150U C169U, 0.00313.

For the variant C82A A120U A145C C150U C169G, the reverse-splicing fitness worked out at 0.00276.

For the variant C82A A120U A145C C150A C169A U176A, the reverse-splicing fitness was 0.00185. Then C82A A120U A145C C150A C169A U176C, with 0.00238.

As for C82A A120U A145C C150A C169A U176G, the reverse-splicing fitness is 0.00198.

C82A A120U A145C C150G C169G U176G: the reverse-splicing fitness worked out at 0.00211.

As to C82A A120U A145C C150G C169G U176A, the reverse-splicing fitness was 0.00256. Then C82A A120U A145C C150G C169G U176C, with 0.00192.

Regarding C82A A120U A145G C150A C169U U176A, the reverse-splicing fitness was 0.0044.

With C82A A120U A145G C150A C169U U176G, the reverse-splicing fitness is 0.003.

Regarding C82A A120U A145G C150A C169U U176C, the reverse-splicing fitness amounted to 0.00385. With C82A A120U A145G C150A U176A, the reverse-splicing fitness stood at 0.0103. With C82A A120U A145G C150A U176C the figure was 0.0142; with C82A A120U A145G C150A U176G, 0.00391; with C82A A120U A145C C150G C169U U176C, 0.00254. With C82A A120U A145C C150G C169U U176G the figure was 0.00175. Then C82A A120U A145C C150G C169U U176A, with 0.00283; and C82A A120U A145C C169G U176A, with 0.00227.

Consider C82A A120U A145C C169G U176C, for which the reverse-splicing fitness is 0.00235. With C82A A120U A145C C169G U176G the figure was 0.00139. Take C82A A120G C169G U176C: the reverse-splicing fitness came to 0.0274. With C82A A120G C169G U176G the figure was 0.00368. Then C82A A120G C169G U176A, with 0.0203; and C82A A120U A145G C150U C169G, with 0.00684; and C82A A120U A145G C150U C169U, with 0.00646. Then C82A A120U A145G C150U C169A, with 0.00691. As for C82A A120U A145C C150G, the reverse-splicing fitness was 0.0172. Then C82A A120U A145C C150A, with 0.00898. Then C82A A120U A145C C150U, with 0.0294; and C82A A120U A145G C150A C169G, with 0.00494. In the case of C82A A120U A145G C150A C169A, the reverse-splicing fitness came to 0.00563. Take C82A A120U A145G C150A C169U: the reverse-splicing fitness came to 0.00423. As to C82A A120U A145C C169U, the reverse-splicing fitness is 0.00406. Then C82A A120U A145C C169G, with 0.0041; and C82A A120U A145C C169A, with 0.00194; and C82A A120G C169A, with 0.0152.

C82A A120G C169G: the reverse-splicing fitness came to 0.0233.
